Among the data in PMC7397094 are IC50 of inhibition of GCAP1-activated RetGC1 activity, RetGC1 activity left with 100 nM RD3, % of that without RD3 (1.5 uM GCAP1) and IC50 of inhibition of GCAP1-activated RetGC1 activity (empirical estimate) values, retold here.

Assay [1] has as its target human recombinant RetGC1 (retinal membrane guanylyl cyclase 1) (human) (UniProt Q02846).
For assay [2] the target is unchanged. The source holds these as a separate data set.
Assay [3] shares this target. This is another data set of the same source.
For assay [4] the target is unchanged. The source holds these as a separate data set.

Read-outs that look alike come from different tables or passages of the source.

Chain of UniProt Q02846 (Q02846 52-1103): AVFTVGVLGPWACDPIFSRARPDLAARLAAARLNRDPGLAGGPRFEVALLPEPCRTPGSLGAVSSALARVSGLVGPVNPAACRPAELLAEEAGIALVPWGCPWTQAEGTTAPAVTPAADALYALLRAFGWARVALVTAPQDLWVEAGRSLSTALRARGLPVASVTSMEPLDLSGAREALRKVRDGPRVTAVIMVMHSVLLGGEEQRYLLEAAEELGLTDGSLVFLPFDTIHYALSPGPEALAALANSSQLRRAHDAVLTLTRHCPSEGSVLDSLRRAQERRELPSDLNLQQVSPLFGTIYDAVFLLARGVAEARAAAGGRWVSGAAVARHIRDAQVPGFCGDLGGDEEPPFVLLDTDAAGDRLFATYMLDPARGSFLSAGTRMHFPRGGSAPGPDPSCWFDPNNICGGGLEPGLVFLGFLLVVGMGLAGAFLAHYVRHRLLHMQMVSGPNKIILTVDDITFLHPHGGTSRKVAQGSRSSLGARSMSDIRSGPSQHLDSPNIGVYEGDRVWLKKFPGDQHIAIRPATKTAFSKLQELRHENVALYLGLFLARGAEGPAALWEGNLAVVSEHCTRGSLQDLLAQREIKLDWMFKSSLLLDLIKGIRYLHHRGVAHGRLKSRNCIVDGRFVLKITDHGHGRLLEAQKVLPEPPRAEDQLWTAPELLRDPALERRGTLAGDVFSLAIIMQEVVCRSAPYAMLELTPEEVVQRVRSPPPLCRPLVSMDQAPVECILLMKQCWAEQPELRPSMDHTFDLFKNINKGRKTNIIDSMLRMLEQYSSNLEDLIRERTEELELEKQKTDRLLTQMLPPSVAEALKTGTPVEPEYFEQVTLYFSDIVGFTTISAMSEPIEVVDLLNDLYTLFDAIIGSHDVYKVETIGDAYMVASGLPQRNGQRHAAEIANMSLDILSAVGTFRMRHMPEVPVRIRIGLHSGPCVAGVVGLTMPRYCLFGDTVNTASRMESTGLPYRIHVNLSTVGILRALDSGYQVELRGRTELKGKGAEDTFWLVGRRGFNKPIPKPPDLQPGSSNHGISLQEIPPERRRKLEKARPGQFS

In the case of “RD3 A105R (from UniProt Q7Z3Z2 1-195) (natural protein)”, the IC50 of inhibition of GCAP1-activated RetGC1 activity in assay [1] was found to be 3.6 nM. In addition, in assay [2], the RetGC1 activity left with 100 nM RD3, % of that without RD3 (1.5 uM GCAP1) worked out at 8.5%.
For “RD3 A105Y (from UniProt Q7Z3Z2 1-195) (natural protein)”, the IC50 of inhibition of GCAP1-activated RetGC1 activity in assay [1] came to 16.7 nM. Besides, the RetGC1 activity left with 100 nM RD3, % of that without RD3 (1.5 uM GCAP1) in assay [2] is 17.9%.
On to “RD3 D59R (from UniProt Q7Z3Z2 1-195) (natural protein)”, for which, in assay [1], the IC50 of inhibition of GCAP1-activated RetGC1 activity came to 26.6 nM. Also, the RetGC1 activity left with 100 nM RD3, % of that without RD3 (1.5 uM GCAP1) in assay [2] turned out to be 24.1%.
For “RD3 E106K (from UniProt Q7Z3Z2 1-195) (natural protein)”, in that order: 13.5 nM and 17.5%.
The matching figures for “RD3 G94Y (from UniProt Q7Z3Z2 1-195) (natural protein)”: 20.7 nM and 22.5%.
Regarding “RD3 H89G (from UniProt Q7Z3Z2 1-195) (natural protein)”, in assay [1], the IC50 of inhibition of GCAP1-activated RetGC1 activity was determined as 10.6 nM. Also, in assay [2], the RetGC1 activity left with 100 nM RD3, % of that without RD3 (1.5 uM GCAP1) came to 13.2%.
For “RD3 L63R (from UniProt Q7Z3Z2 1-195) (natural protein)”, in that order: 882 nM and 82.8%.
Regarding “RD3 P146ter (from UniProt Q7Z3Z2 1-145) (domain or fragment)”, the RetGC1 activity left with 100 nM RD3, % of that without RD3 (1.5 uM GCAP1) in assay [2] stood at 11.7%. In assay [3], the IC50 of inhibition of GCAP1-activated RetGC1 activity was determined as 3.4 nM.
For “RD3 Q102L (from UniProt Q7Z3Z2 1-195) (natural protein)”, the IC50 of inhibition of GCAP1-activated RetGC1 activity in assay [1] turned out to be 59 nM. Moreover, the RetGC1 activity left with 100 nM RD3, % of that without RD3 (1.5 uM GCAP1) in assay [2] came to 28.5%.
The matching figures for “RD3 R99E (from UniProt Q7Z3Z2 1-195) (natural protein)”: 35.5 nM and 27.1%.
For “RD3 R101A (from UniProt Q7Z3Z2 1-195) (natural protein)”, in assay [1], the IC50 of inhibition of GCAP1-activated RetGC1 activity amounted to 261 nM. The RetGC1 activity left with 100 nM RD3, % of that without RD3 (1.5 uM GCAP1) in assay [2] was 48%.
Take “RD3 R101A/Q102L (from UniProt Q7Z3Z2 1-195) (natural protein)”: the IC50 of inhibition of GCAP1-activated RetGC1 activity in assay [1] is 4460 nM.
For the substance “RD3 R101E (from UniProt Q7Z3Z2 1-195) (natural protein)”, the IC50 of inhibition of GCAP1-activated RetGC1 activity in assay [1] was determined as 135 nM. Further, the RetGC1 activity left with 100 nM RD3, % of that without RD3 (1.5 uM GCAP1) in assay [2] stood at 37.9%.
The matching figures for “RD3 S61Y (from UniProt Q7Z3Z2 1-195) (natural protein)”: 11.8 nM and 17.7%.
For the substance “RD3 S74R (from UniProt Q7Z3Z2 1-195) (natural protein)”, in assay [1], the IC50 of inhibition of GCAP1-activated RetGC1 activity was determined as 15.6 nM. Further, the RetGC1 activity left with 100 nM RD3, % of that without RD3 (1.5 uM GCAP1) in assay [2] came to 15.5%.
As to “RD3 W6L/W9L (from UniProt Q7Z3Z2 1-195) (natural protein)”, the RetGC1 activity left with 100 nM RD3, % of that without RD3 (1.5 uM GCAP1) in assay [2] worked out at 13.4%. The IC50 of inhibition of GCAP1-activated RetGC1 activity in assay [3] worked out at 4.5 nM.
Regarding “RD3 W62A (from UniProt Q7Z3Z2 1-195) (natural protein)”, the IC50 of inhibition of GCAP1-activated RetGC1 activity in assay [1] worked out at 253 nM. Also, in assay [2], the RetGC1 activity left with 100 nM RD3, % of that without RD3 (1.5 uM GCAP1) was found to be 49.7%.
With “RD3 W62A/L63R (from UniProt Q7Z3Z2 1-195) (natural protein)”, the IC50 of inhibition of GCAP1-activated RetGC1 activity (empirical estimate) in assay [4] is above 10000 nM.
In the case of “RD3 Y60A (from UniProt Q7Z3Z2 1-195) (natural protein)”, the IC50 of inhibition of GCAP1-activated RetGC1 activity in assay [1] came out at 630 nM. Besides, the RetGC1 activity left with 100 nM RD3, % of that without RD3 (1.5 uM GCAP1) in assay [2] is 65.3%.
Take “RD3 Y71E (from UniProt Q7Z3Z2 1-195) (natural protein)”: in assay [2], the RetGC1 activity left with 100 nM RD3, % of that without RD3 (1.5 uM GCAP1) turned out to be 16.4%.
On to “RD3 Y71G (from UniProt Q7Z3Z2 1-195) (natural protein)”, for which the RetGC1 activity left with 100 nM RD3, % of that without RD3 (1.5 uM GCAP1) in assay [2] came to 15.4%.
For “RD3 Y92A (from UniProt Q7Z3Z2 1-195) (natural protein)”, the IC50 of inhibition of GCAP1-activated RetGC1 activity in assay [1] was found to be 9.8 nM. For the same substance, in assay [2], the RetGC1 activity left with 100 nM RD3, % of that without RD3 (1.5 uM GCAP1) came out at 13.3%.
For “WT RD3 (retinal degeneration-3), bacterially expressed (from UniProt Q7Z3Z2 1-195) (natural protein)”, in that order: 3.6 nM and 11%.
